Where two headings read alike, the source gives them in different places.

In assay [1] the target is HLA-A*0101 (human).
The target of assay [2] is HLA-A*2401 (purified HLA class I molecule) (human).
Assay [3] addresses HLA-A*2401 (human). The experiment in a line: competition with 125I-labelled probe peptide for purified HLA, gel filtration. In general terms: Size exclusion chromatography separates by hydrodynamic size, large species first.
Assay [4] concerns the target HLA-A*2401 (human). Described as above. The source holds these as a separate data set.
Assay [5] deals with HLA-A*2401 (purified HLA class I molecule) (human). The experiment in a line: competition with 125I-labelled probe peptide on purified HLA, gel filtration.
Assay [6] addresses HLA-A*2401 (human). The following applies: scale: ratio.
The target of assay [7] is HLA-A*2401 (purified HLA class I molecule) (human). The assay is described as follows: competition with 125I-labelled standard peptide for purified HLA, gel filtration.
Assay [8] addresses HLA-A*6802 (human). The assay is described as follows: competition with 125I-labelled standard peptide for purified HLA.
The target in assay [9] is HLA-A*0206 (human). The description is as above.
Assay [10] concerns the target HLA-A*6802 (human). The experiment in a line: competition with 125I-labelled standard peptide for purified HLA, gel filtration.
Assay [11] deals with HLA-A*2401 (human).
Assay [12] addresses HLA-A*2401 (human). The source holds these as a separate data set.
Assay [13] has as its target HLA-A*0101 (purified HLA class I molecule) (human).

For the substance “PSM peptide, position 196, 10 amino acids”, the relative binding ratio (IC50 of standard peptide / IC50 of test peptide) in assay [1] amounted to 0.016.
Regarding “PSM (prostate specific membrane antigen) peptide, position 32, 10 amino acids”, the relative binding ratio (IC50 of standard peptide / IC50 of test peptide) in [2] was determined as 0.0026.
Consider “PSM position 606, 9 amino acids (peptide)”, for which the relative binding ratio (IC50 of standard peptide / IC50 of test peptide) in [3] and in [4] was 12 each time.
For the substance “PAP peptide, position 183, 9 amino acids”, the relative binding ratio (IC50 of standard peptide / IC50 of test peptide) in assay [5] came out at 0.11.
In the case of “PSM (Prostate Specific Membrane Antigen) peptide, position 624, 10 amino acids”, in [6], the relative binding ratio (A*2401) amounted to 3.2.
Take PSA position 9, 9 amino acids (peptide): in [7], the relative binding ratio (IC50 of standard peptide / IC50 of test peptide) was found to be 0.11.
As for “PSM position 178, 9 amino acids (peptide)”, the relative binding ratio (IC50 of standard peptide / IC50 of test peptide) in [7] came out at 0.77.
Consider “PSM peptide, position 638, 9 amino acids”, for which the relative binding ratio (IC50 of standard peptide / IC50 of test peptide) in assay [5] was determined as 0.0001.
Regarding “PSA (Prostate Specific Antigen) peptide, position 2, 10 amino acids”, the relative binding ratio (A*2401) in assay [6] was found to be 0.0062.
On to “PSM position 638, 9 amino acids (peptide)”, for which the relative binding ratio (IC50 of standard peptide / IC50 of test peptide) in assay [7] was found to be 0.0001.
Consider peptide 1129.10, PSM.288, for which, in [8], the IC50 – broadly, the concentration needed to halve the response being measured – came to 1540 nM.
Still for that read-out and setting: with peptide 1126.01, PSM.663 the figure was 976 nM.
Take “PSM position 624, 10 amino acids (peptide)”: the relative binding ratio (IC50 of standard peptide / IC50 of test peptide) in [7] worked out at 3.2.
In the case of “PSM position 31, 9 amino acids (printed as 8 in Table XVIII) (peptide)”, the relative binding ratio (IC50 of standard peptide / IC50 of test peptide) in [4] was determined as 0.019.
Still for that read-out and setting: with “PSM position 409, 10 amino acids (peptide)” the figure was 0.054.
As for “PSM (prostate specific membrane antigen) peptide, position 565, 10 amino acids”, the relative binding ratio (IC50 of standard peptide / IC50 of test peptide) in [2] came to 1.1.
In the case of “PSA position 54, 10 amino acids (peptide)”, the relative binding ratio (IC50 of standard peptide / IC50 of test peptide) in [7] amounted to 0.0007.
On to “PSM position 621, 9 amino acids (peptide)”, for which the relative binding ratio (IC50 of standard peptide / IC50 of test peptide) in [4] was 0.001.
Same read-out and setting: with “PSM position 32, 10 amino acids (peptide)” the figure was 0.0026.
Regarding peptide 1419.24, PSA.166.V10, in assay [9], the IC50 amounted to 502 nM.
For the substance “PSA position 190, 9 amino acids (peptide)”, the relative binding ratio (IC50 of standard peptide / IC50 of test peptide) in assay [4] is 0.031.
With “PSM position 168, 10 amino acids (peptide)”, the relative binding ratio in assay [10] is 0.0013.
“PSA position 96, 11 amino acids (peptide)”: the relative binding ratio (IC50 of standard peptide / IC50 of test peptide) in [3] and in assay [7] was 0.12 throughout.
In the case of “PAP peptide, position 309, 10 amino acids”, in assay [5], the relative binding ratio (IC50 of standard peptide / IC50 of test peptide) came to 0.024.
In the case of “PSM position 448, 9 amino acids (peptide)”, the relative binding ratio (IC50 of standard peptide / IC50 of test peptide) in assay [4] came to 0.019.
“PAP peptide, position 163, 10 amino acids”: in assay [5], the relative binding ratio (IC50 of standard peptide / IC50 of test peptide) was determined as 0.0001.
Take “PSA position 9, 10 amino acids (peptide)”: the relative binding ratio (IC50 of standard peptide / IC50 of test peptide) in assay [7] was 0.36.
“PSM position 582, 10 amino acids (peptide)”: the relative binding ratio (IC50 of standard peptide / IC50 of test peptide) in assay [4] amounted to 0.0002.
As for “PSM position 74, 10 amino acids (peptide)”, the relative binding ratio (IC50 of standard peptide / IC50 of test peptide) in assay [3] and in assay [7] was 0.23 throughout.
“PSM (prostate specific membrane antigen) peptide, position 621, 9 amino acids (from UniProt Q04609 621-629)”: the relative binding ratio (IC50 of standard peptide / IC50 of test peptide) in assay [2] was determined as 0.001.
As for “PSA (Prostate Specific Antigen) peptide, position 9, 9 amino acids”, in [6], the relative binding ratio (A*2401) was determined as 0.11.
As to “PSM position 227, 9 amino acids (peptide)”, the relative binding ratio (IC50 of standard peptide / IC50 of test peptide) in [3] and in assay [7] was 0.44 in each case.
For the substance “PSA position 190, 9 amino acids (…) (peptide)”, the relative binding ratio (IC50 of standard peptide / IC50 of test peptide) in assay [11] turned out to be 0.031.
As for “PSM (prostate specific membrane antigen) peptide, position 582, 10 amino acids”, the relative binding ratio (IC50 of standard peptide / IC50 of test peptide) in [2] stood at 0.0002.
As for “PSA position 98, 9 amino acids (peptide)”, in [4], the relative binding ratio (IC50 of standard peptide / IC50 of test peptide) was 0.0001.
Regarding “PSA position 224, 9 amino acids (peptide)”, in assay [7], the relative binding ratio (IC50 of standard peptide / IC50 of test peptide) was 0.0001.
Consider “PSA peptide, position 91, 9 amino acids (A24 supermotif)”, for which the relative binding ratio (IC50 of standard peptide / IC50 of test peptide) in assay [12] turned out to be 0.0007.
In the case of “PSM (prostate specific membrane antigen) peptide, position 31, 9 amino acids”, the relative binding ratio (IC50 of standard peptide / IC50 of test peptide) in assay [2] is 0.019.
On to “PAP peptide, position 355, 10 amino acids”, for which, in [5], the relative binding ratio (IC50 of standard peptide / IC50 of test peptide) worked out at 0.0037.
Still for that read-out and setting: with “PSM peptide, position 178, 9 amino acids” the figure was 0.77; with “PAP peptide, position 297, 10 amino acids”, 0.0001.
As to “PSM position 668, 9 amino acids (peptide)”, the relative binding ratio (IC50 of standard peptide / IC50 of test peptide) in assay [3] and in assay [7] was 0.0075 throughout.
In the case of “PSM position 565, 10 amino acids (peptide)”, the relative binding ratio (IC50 of standard peptide / IC50 of test peptide) in assay [4] came to 1.1.
With “PSA (Prostate Specific Antigen) peptide, position 9, 10 amino acids”, the relative binding ratio (A*2401) in assay [6] worked out at 0.36.
Take “PAP position 70, 10 amino acids (peptide)”: the relative binding ratio (IC50 of standard peptide / IC50 of test peptide) in assay [3] stood at 0.0022.
“PAP position 297, 10 amino acids (peptide)”: the relative binding ratio (IC50 of standard peptide / IC50 of test peptide) in [7] worked out at 0.0001.
On to “PSA (Prostate Specific Antigen) peptide, position 2, 9 amino acids”, for which the relative binding ratio (A*2401) in assay [6] was 2.1.
Consider “PSA peptide, position 224, 9 amino acids (A24 supermotif)”, for which, in [12], the relative binding ratio (IC50 of standard peptide / IC50 of test peptide) is 0.0001.
Regarding PSA position 2, 9 amino acids (peptide), in [7], the relative binding ratio (IC50 of standard peptide / IC50 of test peptide) amounted to 2.1.
On to “PSM position 409, 10 amino acids (…) (peptide)”, for which the relative binding ratio (IC50 of standard peptide / IC50 of test peptide) in assay [11] stood at 0.054.
Turning to “PSA peptide, position 54, 10 amino acids”, the relative binding ratio (IC50 of standard peptide / IC50 of test peptide) in [5] is 0.0007.
With “PSA position 2, 10 amino acids (peptide)”, the relative binding ratio (IC50 of standard peptide / IC50 of test peptide) in assay [7] worked out at 0.0062.
On to “PSM peptide, position 196, 10 amino acids (A1 supermotif)”, for which, in assay [13], the relative binding ratio (IC50 of standard peptide / IC50 of test peptide) stood at 0.016.

(Values after patent publication US20040037843A1.)
